Measurements published in patent publication CN114349861A (HUAOTSU BALL; JIANGSU INST OF TARGET BIOMEDICINE CO LTD, dated 2022).

Target: T1, 人PD1蛋白 (human, UniProt Q15116 25-170)
T1 construct: extracellular domain; also called PD1(人); PD1(胞外段)蛋白
Experiment: non-competitive ELISA at three PD1 coating concentrations; Beatty formula, mean of three K values

T1 sequence (Q15116 25-170): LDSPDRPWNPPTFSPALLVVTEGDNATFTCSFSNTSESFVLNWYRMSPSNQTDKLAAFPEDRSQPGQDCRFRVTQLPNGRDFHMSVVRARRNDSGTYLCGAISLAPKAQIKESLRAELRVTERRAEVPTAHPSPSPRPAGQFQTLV

B1: 抗PD1-VHH1 (VHH)
VHH: QVQLVESGGGSVQAGGSLRLSCAASGYASSSYSMGWFRQAPGKEREAVAGVNRDGSTRYADSVKGRFTISKDNAKNTLYLQMNSLKPEDTAMYYCAADRGWLPRRPDYWGQGTQVTVSS
notes: Camel (dromedary) VHH selected from a T7 phage library; The soluble protein was expressed from pET32a in E. coli BL21(DE3) and purified on Ni-IDA; The specificity ELISA detected it with an anti-HA antibody; also called 抗PD1Nb1; antiPD1Nb
For B1, which Ka is on record?
The Ka was 8.2e+06 M⁻¹.
